Results published in article PMC12355267, “Human Helicase DDX5 is Hijacked by SARS-CoV‑2 Nsp13 Helicase to Enhance RNA Unwinding” (ACS Omega, 2025).

Target: T1, SARS-CoV-2 Nsp13 helicase (SARS-CoV-2, UniProt P0DTD1 5325-5925)
T1 construct: also called Nsp13 helicase of SARS-CoV-2
Assay: BLI
Conditions: both partners purified

B1: DDX5ΔC (1–484) (domain or fragment, human, UniProt P17844 1-484, looked up)
chain: MSGYSSDRDRGRDRGFGAPRFGGSRAGPLSGKKFGNPGEKLVKKKWNLDELPKFEKNFYQEHPDLARRTAQEVETYRRSKEITVRGHNCPKPVLNFYEANFPANVMDVIARQNFTEPTAIQAQGWPVALSGLDMVGVAQTGSGKTLSYLLPAIVHINHQPFLERGDGPICLVLAPTRELAQQVQQVAAEYCRACRLKSTCIYGGAPKGPQIRDLERGVEICIATPGRLIDFLECGKTNLRRTTYLVLDEADRMLDMGFEPQIRKIVDQIRPDRQTLMWSATWPKEVRQLAEDFLKDYIHINIGALELSANHNILQIVDVCHDVEKDEKLIRLMEEIMSEKENKTIVFVETKRRCDELTRKMRRDGWPAMGIHGDKSQQERDWVLNEFKHGKAPILIATDVASRGLDVEDVKFVINYDYPNSSEDYIHRIGRTARSTKTGTAYTFFTPNNIKQVSDLISVLREANQAINPKLLQLVEDRGSGRSR
notes: human DDX5 without the flexible C-terminal end, residues 1-484; also called C-terminal truncated form of DDX5; source: E. coli (gene optimized for E. coli expression, pETM-13), purified
- binding result: binds
